Our source for the protein production values is a protein production outcome set (Wang et al. 2014).

The data set is described as follows: label from the status in PepcDB records.

In the case of “MSSPVISPETKTGKKILLAAPRGYCAGVDRAVETVERALEEYGAPIYVRKEIVHNRYVVDTLAEKGAIFVNEASEAPEGANMVFSAHGVSPMVHEEAAAKNIKAIDAACPLVTKVHKEVQRFDKQGFHILFIGHEGHEEVEGTMGHSVEKTHLVDGVAGIATLPEFLNDEPNLIWLSQTTLSVDETMEIVRELKVKFPQLQDPPSDDICYATQNRQVAVKAIAERCELMIVVGSRNSSNSVRLVEVAKQNGADNAYLVDYAREIDPAWFEGVETIGISSGASVPEILVQGVIERLAEFGYDDVEEVTSAAEKIVFALPRVLRHKN”, the protein production entry is on record as “not failed”. Consider “MSSPYILVLYYSRHGATAEMARQIARGVEQGGFEARVRTVPAVSTECEAVAPDIPAEGALYATLEDLKNCAGLALGSPTRFGNMASPLKYFLDGTSSLWLTGSLVGKPAAVFTSTASLHGGQETTQLSMLLPLLHHGMLVLGIPYSEPALLETRGGGTPYGASHFAGADGKRSLDEHELTLCRALGKRLAETAGKLGS”, for which the protein production result is “not failed”. Take “MSSRAKRLTHLASLPSMSRALLKKILHFDETLTVIFKQSHVQLSETYGLSTKKARHLYEHLRRVSTDFWSEYYEKKQIVPVTIFDKGYPNLLKEIYDPPFVLFCRGRMNTLYSEKRLAIVGTRKTSTTGLKSLELLIPPLLQDGWVIVSGFAAGVDIHAHQLTVKNGGQTIAVLAHGHDNLYPAAHRPFAEHEMVSQLMISEYPPYVKPRPWQFPERNRIISGLCAGTVVIEAKEKSGSLITADQALEQGRDVFAVPGAITNQKAAGTNQLIQQGAKLIQRADDIIEELCGFQQSCDSDKFF”: the protein production entry is recorded as “failed”. With “MSSRPSRGAARLAAILDALPDALVLVNANGTVVNANTIALEAFETPGTALVGRGLLDLLPEFDSRLIPGSMRRPDSMDPRGRTKPTRMVARRTDGSEFPVEVTSANLENGQQAYDGYGYTGD”, the protein production result was “failed”. As for “MSSSREENVYLAKLAEQAERYEEMVEFMEKVAKTVDTDELTVEERNLLSVAYKNVIGARRASWRIISSIEQKEESRGNDDHVSIIKDYRGKIETELSKICDGILNLLDSHLVPTASLAESKVFYLKMKGDYHRYLAEFKTGAERKEAAESTLVAYKSAQDIALADLAPTHPIRLGLALNFSVFYYEILNSPDRACSLAKQAFDEAISELDTLGEESYKDSTLIMQLLRDNLTLWNSDINDEAGGDEIKEASKHEPEEGKPAETGQ”, the protein production entry was “failed”. With “MSSSSTSGLPATLPFEELAEAIKGRRSDYGHISGLQLDRFAPAEAWSSLPYRPVFVGDTETGVLHGGVVTAMLDESCGMAVQLALDGTRAIATLDLRIDYQKPATPGLDIKAHSVCYRTTRSIAFVRSTAYQESEDDPVATATACFMIGANRTNMLADRRMDSRSIPTLEAPEDPDGPFARSPFARCLGIRVNDDGTLTMPFSPKIIGNPILPAIHGGMTGAFLETTAIIGVARELGAAAPPKPIGLTINYLRSGRALDSFANVSIVKQGRRIVAFEARAWQDDADKPIATAFGHFMLRPTPGNDEE”, the protein production result is given as “failed”.

Take “MSSSTDTAMAAAEPIWLQHLAEQNIADFIPHRAPMILIDKIISHQQDALETEVLITPQSAYFDEHRQAVPNYVGIEYMAQSIAALAGVEAKLRHDKIRVGFLLGSRKLALHTAQYELNRRYRTQVKRLYQEESGLAVFDCQIYLLPEAQAQQTPLLVAEANVNVFQPQDTQAYIASSQQA”: the protein production result is “failed”. With “MSSSTGALHWQTAQAALARRDLGVAGSALQALLEVEPTHVSARVLLAGTVLANGRMREAVAQLQLAARDVDDDVAMRCRVAQALLRVGAHRQLHALLRHPSVMQCRDGATLALLAHVHQSLGEHVDALAMMQRAQVCGFDGPDFRFFLAVQLQFNGRLDDAAQALEQTLALVPGYGRAALTRARLRRQTVSSNHVDQLRQQLQRSKPDSEDRAGLAFALYKELEDLGDTDAAWDALQHGNAVMHARLRHDADAEASLYARLGTLAEQGVFAAQASDADAVALQGPQPIFVLGLPRSGTTVLERMLGNHSQIVSAGELNDFGHQLRWGADQAGRSLLDAGLLQAFPTLDYTQIGARYLEQTQWRAGPARWYIDKLPANAVAIGAIARALPGALIVHLVREPMAVCFSNYRALFGDSYAYSYDVHTLARHYQAYHGLMAQWRAALPGRVIDVDYTQMVRDPSTVLQQLMARCGLDIEPGQSDITRNAAASATLSSVQVREGVHSRNVEHWRRYAMQLEPLRQALAEAGLIDAGLH” the entry was “failed”; with “MSSSVVAETVPSGSGSWFSHFKATLVLGIPLIGAQLAQLGIHTTDMVIVGQLGAEKLAAMVLAGQFFFVVFIFGSGFSVAVVPMVAQAYGQGDATSARRSLRMGMWVAIAYWLLALPIFFNAERILVYLGQNPNVAALTGHYLAIAKFGLLPALLFYVLRGLVSAIGRAGIILYVTIIMLVMNGLMAYVLVFGHFGLPAMGMNGAAVVAVIVNAFSFIFIVAYVQTREETKKYELFVRFWRPDWHALFEVLRLGLPISITILAEVTLFAAASILMGQIGTVQLAAHGIALQLASIAFMIPLGLSQAATVRVGVARGQGDFKNLIRASIMIYAIACGIALCGGILFAAVPEFLAKWFLDPKLPEAAEVLAYASSLVVIAGIFQLVDGIQAVTAGLLRGLKDARIPAMLALISYWPIGLALAWTMAFPLGFGGRGVWFGFVIGLSTAAVLLTVRFVLLVKREMKTAR”, “failed”. With “MSSTKLIVLKSKELIYTAILLALIVVFVIILINMFKRNDKSDGSQSGPAKAVSAPADPGTGIYNTRYTPGTYSSPLILGENTLSVIVTVDDCQITDVSFQQMGETITTMYPLLESSLEDINTQLHYISSVDDIIPSGDSTYTTKLIIDSIKNALKEAVVN” the entry was “failed”; with “MSSVSDVAFFMEVVKAGTLSGAAQELGVSTAAVSRRLANLEVRLGIRLLNRTTRRAAVTYEGELYLAEGKKILGELEELEQRLASAHSVPKGLLRVNATFGFGRQFIAPAIADFVELHPDVDVQLSLSDRPVNLIEDGFDVCIRFGDLPDARLTSRKIACNRRLLCASPGYLERFGIPASPMDLQRHRCIVIRESDETYGAWHLYSGAAQANVKVRGTVSTNDGEVAVDWALRGLGILLRSEWNVAPYLRSGRLREVLGDWRFPPADIHAVYPMKSNLSAKVRAFVSHLDKHFEPYRPRAEGKSRW”, “failed”. Take “MSTALATLAGKLAERVGMDSVDPQELITTLRQTAFKGDASDAQFIALLIVANQYGLNPWTKEIYAFPDKQNGIVPVVGVDGWSRIINENQQFDGMDFEQDNESCTCRIYRKDRNHPICVTEWMDECRREPFKTREGREITGPWQSHPKRMLRHKAMIQCARLAFGFAGIYDKDEAERIVENTAYTAERQPERDITPVNDETMQEINTLLIALDKTWDDDLLPLCSQIFRRDIRASSELTQAEAVKALGFLKQKATEQKVAA”: the protein production entry was “failed”. As for “MSTAVASAPRSGQVLADLLPASRVRDAALVLGGAALTGLAAQISLPVPGSPVPVTGQTFAALLVGTALGAGRGFLSLAVYALVGMAGVPWFAGGGSGAAAPSFGYILGMLLAATVVGALARRGADRSVLRTAGAMLLGEAIIYAIGVPYLAFATGMSLTAAIAAGLTPFLIGDALKAALAMGVLPTAWKFLNR”, the protein production result was “failed”.

Turning to “MSTAVFLGFIVLSLYLALRSRKGTGSQSAHDFFVASRQFGAFLVFFLAAGEIYSVATMVGFAGGIYAKGPTYGIWFLGYILLAYPLGYFLAPKIWEAGQRFNAITLADLFKGHFDNRAVEFVVALSSILFLLPMAQLQFTGLIAAFRGLGWSFQPLHLVLIAAVLAFTYIAISGVRSSAYVAVLKDVLMVVAIVVTGLAVAGEVGVAKVFHVASEHVSNRMNDEQLRFSMSTILFQSLGFYMMPISVQFIYTAKSADTIRRTQVAMPLYMLMYPFLVLASYYALTRSDTLATANEAFFVAATHLLPSWLLGLVAAAAALSGLLVLTGMCLAIGPIVTRNLLPHLPESRQKAGAKGVIVVYLIVSILMTLMAPNLMLTLINTTYYGVTQFLPGMIVILFSLRVRPSAVVLGILTGQLMAVVLYLEKVDLGGINLGLPCLAANVVVMVVLNLLRTPKGLQATA”, the protein production entry is reported as “failed”. Take “MSTDFAAARLNMVESQIRTADVTDLPLQDALRVVARESVVPASKAYLAYADADIEYAPGRWLLRPREVGKLLQALKPREGETVLAIAAPYAAAVLEKMGLSVTRHDGEDLKTVPAGAYDVIVCEGAVAVAPKSWQDALAHGGRLGVVERTGPVGRAAIYLRAEDGVGRRAAFDASPPLLAGFEAETGFSF”: the protein production result is “failed”.
